Reference: PMC5110521, “EstDZ3: A New Esterolytic Enzyme Exhibiting Remarkable Thermostability” (Frontiers in Microbiology, 2016)

What was measured:
Experiment in all cases: purified protein
Type in all cases: biochemical, Dictyoglomus thermophilum
Details in all cases: 25 mM Tris-HCl pH 8, 0.05% Triton X-100, 75°C (standard reaction), substrate 0.1 to 1 mM
purified protein [1] = substrate: CC(=O)Oc1ccc([N+](=O)[O-])cc1
purified protein [2] = substrate: CCCC(=O)Oc1ccc([N+](=O)[O-])cc1
purified protein [3] = substrate: CCCCCCCC(=O)Oc1ccc([N+](=O)[O-])cc1
purified protein [4] = substrate: CCCCCCCCCC(=O)Oc1ccc([N+](=O)[O-])cc1
purified protein [5] = substrate: CCCCCCCCCCCC(=O)Oc1ccc([N+](=O)[O-])cc1

B1: EstDZ3 (Dictyoglomus thermophilum) (protein)
chain: MTENREPVVLKNQGQKIFGVIHIPEKTPAPFVLFCHGFTGTKIEPHRIFVKTAEALAKEGIGALRIDFRGSGDSEGSFKDMTVEGEVSDAMVAIEYLSQNNLVDKEKIGILGLSMGGAVASITSGRNPLIKSCVLWSAVCHFDIFFNRSPEEVSRIKDYGDFIDLGGNPVGKKFLSEIVNIKPLEEIKKRSIPVLIIHGSGDMVVPIQHAYDYFNGLKDTHKVKLEIIEGADHTFNSIEWEEKVIEKTVNWFKETL
notes: full-length ORF, 256 residues (modelled 1 to 256), no signal peptide; pLATE52 poly-histidine tag kept; E. coli BL21(DE3); heat treatment and Ni-NTA; forward primer encodes MTENREP
Km (purified protein [1]): 300 ± 70 µM | Vmax (purified protein [1]): 355 µmol/min/mg | kcat (purified protein [1]): 740 s⁻¹ | kcat/Km (purified protein [1]): 2.43e+06 M⁻¹ s⁻¹ | Km (purified protein [2]): 150 ± 20 µM | Vmax (purified protein [2]): 906 µmol/min/mg | kcat (purified protein [2]): 1890 s⁻¹ | kcat/Km (purified protein [2]): 1.25e+07 M⁻¹ s⁻¹ | Km (purified protein [3]): 190 ± 10 µM | Vmax (purified protein [3]): 501 µmol/min/mg | kcat (purified protein [3]): 104 s⁻¹ | kcat/Km (purified protein [3]): 557000 M⁻¹ s⁻¹ | Km (purified protein [4]): 170 ± 10 µM | Vmax (purified protein [4]): 387 µmol/min/mg | kcat (purified protein [4]): 80 s⁻¹ | kcat/Km (purified protein [4]): 471000 M⁻¹ s⁻¹ | Km (purified protein [5]): 610 ± 140 µM | Vmax (purified protein [5]): 357 µmol/min/mg | kcat (purified protein [5]): 743 s⁻¹ | kcat/Km (purified protein [5]): 1.27e+06 M⁻¹ s⁻¹
